Data: patent US9976134B2, “Thermolysin variants” (Danisco US Inc., priority 2007, dated 2018)

Key:
[1] = biological target: T1, thermolysin (Bacillus thermoproteolyticus, UniProt P00800); assay: Stabilisation of thermolysin in Unilever ALL Small and Mighty detergent by metalloproteinase inhibitors (SDS-PAGE); settings: thermolysin 800 μg/ml in Unilever ALL Small and Mighty, FIG. 8
T1 construct: purchased Sigma
T1 sequence (P00800 233-548): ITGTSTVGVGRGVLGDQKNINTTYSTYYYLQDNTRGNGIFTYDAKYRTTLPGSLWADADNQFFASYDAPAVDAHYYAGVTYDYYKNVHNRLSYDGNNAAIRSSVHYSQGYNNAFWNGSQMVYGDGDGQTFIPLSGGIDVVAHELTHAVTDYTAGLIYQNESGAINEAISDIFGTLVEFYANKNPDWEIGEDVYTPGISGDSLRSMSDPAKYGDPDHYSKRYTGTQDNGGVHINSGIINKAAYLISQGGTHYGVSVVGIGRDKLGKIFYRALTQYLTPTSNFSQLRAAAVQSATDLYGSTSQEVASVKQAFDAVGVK
Experimental: Zinc Chloride, Phosphoramidon, Galardin are known metalloproteinase inhibitors. They were purchased from Sigma and dissolved in water or DMSO. Different concentrations of the inhibitors were premixed with thermolysin (also referred to as Proteinase-T or PrT) for 10 min at room temperature. Then the inhibitors were added into Unilever detergent ALL Small and Mighty so that the final concentration of thermolysin was 800 μg/ml in a total volume of 1 ml. At different time points, samples were taken and precipitated with TCA. Briefly, 10 μl sample of detergent with enzyme was added into 500 μl of 0.2 N HCl on ice, and then 500 μl of 20% TCA was added. The tubes were mixed and incubated on ice for 20 min. The pellet was collected and washed with 90% ice-cold acetone. The pellet was dissolved in sample loading buffer (Invitrogen) for SDS-PAGE analysis.

[2] = TIDE 2X 0.78 g/l, 6 gpg, pH 8.2, 30 min at 20°C, A405; variant vs wild-type thermolysin at same protein concentration
Experimental: Thermolysin containing protease samples were obtained from filtered broth of cultures grown in microtiter plates for 3 days at 37° C. with shaking at 280 rpm under humidified aeration.
• Thermolysin containing culture supernatants (˜100-200 μg protein per ml) • TIDE® 2× (nil enzymes) detergent (P&G) • Dilution Buffer (10 mM NaCl, 0.1 mM CaCl2, 0.005% TWEEN®-80) The equipment used was a Biomek FX Robot (Beckman Coulter), a SpectraMAX MTP Reader (type 340; Molecular Devices), and an iEMS incubator/shaker (Thermo/Labsystems). MTPs were obtained from Costar (type 9017). TIDE® 2× Liquid Detergent Preparation (US Conditions):
Milli-Q water was adjusted to 6 gpg water hardness using a (Ca/Mg 3:1) hardness stock solution (282.3 g/L CaCl2.2H20, 130.1 g/L MgCl2.6H2O), 0.78 g/1 detergent TIDE® 2× was added, and the detergent solution was stirred vigorously for at least 15 minutes. Then, 5 mM HEPES was added and the pH adjusted to 8.2.
Microswatches of ¼ inch circular diameter were obtained from CFT (Vlaardingen, The Netherlands).
Two microswatches were placed vertically into each well of a 96-well microtiter plate to expose the whole surface area (i.e., not flat on the bottom of the well).
The incubator was set to 20° C. The filtered culture broth samples were tested at an appropriate concentration by dilution with a mixture of 10 mM NaCl, 0.1 mM CaCl2, 0.005% TWEEN®-80 solution. The detergent solution was prepared as described above. Then, 190 μl of detergent solution were added to each well of the MTP, containing microswatches. To this mixture, 10 μl of diluted enzyme solution were added to each well (to provide a total volume of 200 μl/well). The MTP was covered with a plate seal and placed in an incubator for 30 minutes at 20° C., with agitation at 1400 rpm (iEMS incubator). Following incubation under the appropriate conditions, 100 μl of solution from each well was removed and placed into a new MTP. Subsequently this MTP, containing 100 μl of solution/well, was read at 405 nm in a MTP-Reader. Blank controls, containing 2 microswatches/well and detergent, without the addition of thermolysin containing samples, were also included in the test.
The observed absorbance value was corrected for the blank value (obtained after incubation of microswatches in the absence of added enzyme). The resulting absorbance was a measure for the hydrolytic activity. For each sample (thermolysin or a variant) the performance index (PI) was calculated. The performance index is a comparison of the performance of the variant (actual value) and the standard thermolysin enzyme (theoretical value) at the same protein concentration. In addition, the theoretical values were calculated, using the parameters of the Langmuir equation of the standard enzyme.
C. Stability Assay in the Presence of Detergent
In this example, experiments were conducted to determine the stain removal performance of various singly substituted thermolysin (also referred to herein as Proteinase-T or PrT) variants. As described in Example 1, the stain cleaning performance of thermolysin variants was done utilizing a blood/milk/ink (BMI) microswatch assay. Briefly the cleaning performance of chosen single-substitution thermolysin variants was assessed in a TIDE® 2× microswatch assay.

[3] = Stability assay in 25% TIDE 2X detergent without DTPA (residual Abz-AGLA-Nba protease activity); type: physicochemical; settings: 180 min at 50°C; variant residual AGLA activity divided by wild-type residual activity
Summary of the method: (§1)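 Thermolysin variant culture supernatants stressed in TIDE 2× detergent, with or without DTPA: 60 min at 32° C or 180 min at 50° C. Residual versus unstressed activity on Abz-AGLA-Nba read kinetically at 25° C (Ex 350/Em 420). Performance index is variant residual activity divided by wild-type thermolysin residual activity.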

[4] = Stability assay in 25% TIDE 2X detergent with DTPA (residual Abz-AGLA-Nba protease activity); type: physicochemical; settings: 60 min at 32°C; variant residual AGLA activity divided by wild-type residual activity
Summary of the method: as §1

In the case of `CNC(=O)[C@H](Cc1c[nH]c2ccccc12)NC(=O)[C@@H](CC(=O)NO)CC(C)C` [Galardin], the “stabilisation of thermolysin in detergent” value ([1]; 1 mM inhibitor) is reported as “significantly stabilize thermolysin in detergent”.

For `CC(C)C[C@H](NP(=O)(O)O[C@@H]1O[C@@H](C)[C@H](O)[C@@H](O)[C@H]1O)C(=O)N[C@@H](Cc1c[nH]c2ccccc12)C(=O)O` [Phosphoramidon], the “stabilisation of thermolysin in detergent” value ([1]; 500 μM inhibitor) was “significantly stabilize thermolysin in detergent”.

B1: Q128I: single-substitution thermolysin variant (SEQ ID NO:3 numbering) (protein, listed as Geobacillus caldoproteolyticus)
chain: ITGTSTVGVGRGVLGDQKNINTTYSTYYYLQDNTRGNGIFTYDAKYRTTLPGSLWADADNQFFASYDAPAVDAHYYAGVTYDYYKNVHNRLSYDGNNAAIRSSVHYSQGYNNAFWNGSQMVYGDGDGITFIPLSGGIDVVAHELTHAVTDYTAGLIYQNESGAINEAISDIFGTLVEFYANKNPDWEIGEDVYTPGISGDSLRSMSDPAKYGDPDHYSKRYTGTQDNGGVHINSGIINKAAYLISQGGTHYGVSVVGIGRDKLGKIFYRALTQYLTPTSNFSQLRAAAVQSATDLYGSTSQEVASVKQAFDAVGVK
In the case of B1, the “PI (performance index), stain removal” value [2] is reported as 1.34, the “PI (relative stability), 25% TIDE 2X without DTPA” value [3] is reported as 1.19 and the “PI (relative stability), 25% TIDE 2X with DTPA” value [4] is reported as 1.32.

B2: T049N: single-substitution thermolysin variant (SEQ ID NO:3 numbering) (protein, listed as Geobacillus caldoproteolyticus)
chain: ITGTSTVGVGRGVLGDQKNINTTYSTYYYLQDNTRGNGIFTYDAKYRTNLPGSLWADADNQFFASYDAPAVDAHYYAGVTYDYYKNVHNRLSYDGNNAAIRSSVHYSQGYNNAFWNGSQMVYGDGDGQTFIPLSGGIDVVAHELTHAVTDYTAGLIYQNESGAINEAISDIFGTLVEFYANKNPDWEIGEDVYTPGISGDSLRSMSDPAKYGDPDHYSKRYTGTQDNGGVHINSGIINKAAYLISQGGTHYGVSVVGIGRDKLGKIFYRALTQYLTPTSNFSQLRAAAVQSATDLYGSTSQEVASVKQAFDAVGVK
In the case of B2, the “PI (performance index), stain removal” value [2] is reported as 1.10, the “PI (relative stability), 25% TIDE 2X without DTPA” value [3] is reported as 1.07 and the “PI (relative stability), 25% TIDE 2X with DTPA” value [4] is reported as 1.03.

B3: Q128Y: single-substitution thermolysin variant (SEQ ID NO:3 numbering) (protein, listed as Geobacillus caldoproteolyticus)
chain: ITGTSTVGVGRGVLGDQKNINTTYSTYYYLQDNTRGNGIFTYDAKYRTTLPGSLWADADNQFFASYDAPAVDAHYYAGVTYDYYKNVHNRLSYDGNNAAIRSSVHYSQGYNNAFWNGSQMVYGDGDGYTFIPLSGGIDVVAHELTHAVTDYTAGLIYQNESGAINEAISDIFGTLVEFYANKNPDWEIGEDVYTPGISGDSLRSMSDPAKYGDPDHYSKRYTGTQDNGGVHINSGIINKAAYLISQGGTHYGVSVVGIGRDKLGKIFYRALTQYLTPTSNFSQLRAAAVQSATDLYGSTSQEVASVKQAFDAVGVK
In the case of B3, the “PI (performance index), stain removal” value [2] is reported as 1.13, the “PI (relative stability), 25% TIDE 2X without DTPA” value [3] is reported as 1.05 and the “PI (relative stability), 25% TIDE 2X with DTPA” value [4] is reported as 1.09.

B4: Y151N: single-substitution thermolysin variant (SEQ ID NO:3 numbering) (protein, listed as Geobacillus caldoproteolyticus)
chain: ITGTSTVGVGRGVLGDQKNINTTYSTYYYLQDNTRGNGIFTYDAKYRTTLPGSLWADADNQFFASYDAPAVDAHYYAGVTYDYYKNVHNRLSYDGNNAAIRSSVHYSQGYNNAFWNGSQMVYGDGDGQTFIPLSGGIDVVAHELTHAVTDNTAGLIYQNESGAINEAISDIFGTLVEFYANKNPDWEIGEDVYTPGISGDSLRSMSDPAKYGDPDHYSKRYTGTQDNGGVHINSGIINKAAYLISQGGTHYGVSVVGIGRDKLGKIFYRALTQYLTPTSNFSQLRAAAVQSATDLYGSTSQEVASVKQAFDAVGVK
In the case of B4, the “PI (performance index), stain removal” value [2] is reported as 1.19, the “PI (relative stability), 25% TIDE 2X without DTPA” value [3] is reported as 1.05 and the “PI (relative stability), 25% TIDE 2X with DTPA” value [4] is reported as 1.25.

B5: Q128V: single-substitution thermolysin variant (SEQ ID NO:3 numbering) (protein, listed as Geobacillus caldoproteolyticus)
chain: ITGTSTVGVGRGVLGDQKNINTTYSTYYYLQDNTRGNGIFTYDAKYRTTLPGSLWADADNQFFASYDAPAVDAHYYAGVTYDYYKNVHNRLSYDGNNAAIRSSVHYSQGYNNAFWNGSQMVYGDGDGVTFIPLSGGIDVVAHELTHAVTDYTAGLIYQNESGAINEAISDIFGTLVEFYANKNPDWEIGEDVYTPGISGDSLRSMSDPAKYGDPDHYSKRYTGTQDNGGVHINSGIINKAAYLISQGGTHYGVSVVGIGRDKLGKIFYRALTQYLTPTSNFSQLRAAAVQSATDLYGSTSQEVASVKQAFDAVGVK
With B5 the “PI (performance index), stain removal” value [2] was 1.07, the “PI (relative stability), 25% TIDE 2X without DTPA” value [3] was 1.20 and the “PI (relative stability), 25% TIDE 2X with DTPA” value [4] was 1.45.

B6: Y151T: single-substitution thermolysin variant (SEQ ID NO:3 numbering) (protein, listed as Geobacillus caldoproteolyticus)
chain: ITGTSTVGVGRGVLGDQKNINTTYSTYYYLQDNTRGNGIFTYDAKYRTTLPGSLWADADNQFFASYDAPAVDAHYYAGVTYDYYKNVHNRLSYDGNNAAIRSSVHYSQGYNNAFWNGSQMVYGDGDGQTFIPLSGGIDVVAHELTHAVTDTTAGLIYQNESGAINEAISDIFGTLVEFYANKNPDWEIGEDVYTPGISGDSLRSMSDPAKYGDPDHYSKRYTGTQDNGGVHINSGIINKAAYLISQGGTHYGVSVVGIGRDKLGKIFYRALTQYLTPTSNFSQLRAAAVQSATDLYGSTSQEVASVKQAFDAVGVK
In the case of B6, the “PI (performance index), stain removal” value [2] is reported as 1.13, the “PI (relative stability), 25% TIDE 2X without DTPA” value [3] is reported as 1.10 and the “PI (relative stability), 25% TIDE 2X with DTPA” value [4] is reported as 1.18.

B7: Q128M: single-substitution thermolysin variant (SEQ ID NO:3 numbering) (protein, listed as Geobacillus caldoproteolyticus)
chain: ITGTSTVGVGRGVLGDQKNINTTYSTYYYLQDNTRGNGIFTYDAKYRTTLPGSLWADADNQFFASYDAPAVDAHYYAGVTYDYYKNVHNRLSYDGNNAAIRSSVHYSQGYNNAFWNGSQMVYGDGDGMTFIPLSGGIDVVAHELTHAVTDYTAGLIYQNESGAINEAISDIFGTLVEFYANKNPDWEIGEDVYTPGISGDSLRSMSDPAKYGDPDHYSKRYTGTQDNGGVHINSGIINKAAYLISQGGTHYGVSVVGIGRDKLGKIFYRALTQYLTPTSNFSQLRAAAVQSATDLYGSTSQEVASVKQAFDAVGVK
With B7 the “PI (performance index), stain removal” value [2] was 1.10, the “PI (relative stability), 25% TIDE 2X without DTPA” value [3] was 1.09 and the “PI (relative stability), 25% TIDE 2X with DTPA” value [4] was 1.06.
